According to PMC13139468, “A model for drug transport across two membranes of Gram-negative bacteria by an MFS tripartite assembly” (Nature Communications, 2026):

B3: EmrA (EmrA part of the EmrB-EmrA fusion protein, C-terminal 6His) (natural protein)
chain: MSANAETQTPQQPVKKSGKRKRLLLLLTLLFIIIAVAIGIYWFLVLRHFEETDDAYVAGNQIQIMSQVSGSVTKVWADNTDFVKEGDVLVTLDPTDARQAFEKAKTALASSVRQTHQLMINSKQLQANIEVQKIALAKAQSDYNRRVPLGNANLIGREELQHARDAVTSAQAQLDVAIQQYNANQAMILGTKLEDQPAVQQAATEVRNAWLALERTRIISPMTGYVSRRAVQPGAQISPTTPLMAVVPATNMWVDANFKETQIANMRIGQPVTITTDIYGDDVKYTGKVVGLDMGTGSAFSLLPAQNATGNWIKVVQRLPVRIELDQKQLEQYPLRIGLSTLVSVNTTNRDGQVLANKVRSTPVAVSTAREISLAPVNKLIDDIVKANAG
notes: also called EmrB-EmrA fusion protein (EmrA part); fused EmrA; not shown: His6, C-terminal, kept

What was measured:
[1] = target: T1, EmrB (modified EmrB, the BRIL-EmrB-ALFA part of the EmrB-EmrA fusion protein) (E. coli K-12 strain MG1655, UniProt P0AEJ0 13-498); assay: cryo-EM structure; EmrAB-TolC pump-EA (EmrB-EmrA fusion protein, modified free EmrA, TolC-FLAG), co-expressed and purified as a complex, in peptidisc, 0.7 mg/mL, holey carbon grids; single-particle cryo-EM, 300 kV; maps at 3.13 Å and 3.14 Å; settings: both partners purified
T1 construct: also called EmrB IM transporter; EmrB-EmrA fusion protein (EmrB part); not shown: BRIL (thermostabilized apocytochrome b562RIL), N-terminal, kept; ALFA, C-terminal, kept
T1 sequence: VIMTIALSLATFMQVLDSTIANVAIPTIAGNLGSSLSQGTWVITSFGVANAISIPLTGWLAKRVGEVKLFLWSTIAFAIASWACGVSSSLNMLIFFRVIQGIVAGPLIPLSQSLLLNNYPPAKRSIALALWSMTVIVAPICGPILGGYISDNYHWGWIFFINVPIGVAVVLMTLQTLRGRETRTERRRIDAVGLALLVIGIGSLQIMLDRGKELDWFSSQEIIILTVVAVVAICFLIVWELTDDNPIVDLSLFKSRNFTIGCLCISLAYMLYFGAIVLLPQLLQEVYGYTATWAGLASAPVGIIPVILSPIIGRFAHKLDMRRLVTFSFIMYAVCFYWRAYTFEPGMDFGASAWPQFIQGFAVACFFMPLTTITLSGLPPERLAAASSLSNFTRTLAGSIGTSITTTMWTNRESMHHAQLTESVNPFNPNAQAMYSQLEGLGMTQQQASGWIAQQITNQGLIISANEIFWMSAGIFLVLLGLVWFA

[2] = target: B3; assay: as above; settings: both partners purified
TolC (TolC-FLAG) [3] = target: T2, TolC (TolC-FLAG) (E. coli K-12 strain MG1655, UniProt P02930 23-493); assay: as above; settings: both partners purified
T2 construct: also called TolC OM channel; not shown: FLAG, C-terminal, kept
T2 sequence: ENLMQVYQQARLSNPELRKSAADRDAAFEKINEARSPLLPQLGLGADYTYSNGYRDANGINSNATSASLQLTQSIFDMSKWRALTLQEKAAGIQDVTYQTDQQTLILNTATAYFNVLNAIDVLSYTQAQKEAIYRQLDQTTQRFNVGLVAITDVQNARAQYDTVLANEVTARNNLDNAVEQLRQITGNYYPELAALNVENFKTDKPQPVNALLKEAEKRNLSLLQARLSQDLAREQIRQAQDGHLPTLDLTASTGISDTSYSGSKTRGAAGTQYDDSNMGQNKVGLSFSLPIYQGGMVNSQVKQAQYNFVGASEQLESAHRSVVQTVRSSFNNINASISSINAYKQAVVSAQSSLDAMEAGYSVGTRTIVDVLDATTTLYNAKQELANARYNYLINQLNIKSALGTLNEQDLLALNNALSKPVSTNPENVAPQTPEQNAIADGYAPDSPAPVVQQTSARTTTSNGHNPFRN

[4] = target: the molecule itself; assay: as above
[5] = target: T1, EmrB (modified EmrB, the BRIL-EmrB-ALFA …); assay: cryo-EM structure; EmrAB-TolC pump-FA (EmrB-EmrA fusion protein, wild-type free EmrA, TolC-FLAG), co-expressed and purified as a complex, in peptidisc, 0.1 mg/mL, graphene-covered grids; single-particle cryo-EM, 300 kV; maps at 3.59 Å and 3.66 Å; settings: both partners purified
TolC (TolC-FLAG) [6] = target: T2, TolC (TolC-FLAG); assay: as above; settings: both partners purified
[7] = target: the molecule itself; assay: as above

B1: modified free EmrA (N-terminal residues 1-47 replaced by residues 1-27 of AcrA) (other)
chain: CDDHFEETDDAYVAGNQIQIMSQVSGSVTKVWADNTDFVKEGDVLVTLDPTDARQAFEKAKTALASSVRQTHQLMINSKQLQANIEVQKIALAKAQSDYNRRVPLGNANLIGREELQHARDAVTSAQAQLDVAIQQYNANQAMILGTKLEDQPAVQQAATEVRNAWLALERTRIISPMTGYVSRRAVQPGAQISPTTPLMAVVPATNMWVDANFKETQIANMRIGQPVTITTDIYGDDVKYTGKVVGLDMGTGSAFSLLPAQNATGNWIKVVQRLPVRIELDQKQLEQYPLRIGLSTLVSVNTTNRDGQVLANKVRSTPVAVSTAREISLAPVNKLIDDIVKANAG
modifications: C25 (AcrA numbering) modified by a palmitoyl acid chain
notes: also called acrAsignal-ΔemrA; free EmrA of pump-EA
B1: binds [1]; binds [2]; binds (TolC (TolC-FLAG) [3]). For the same binder, the “stoichiometry N” value [4] was 6.

B2: wild-type free EmrA (natural protein)
chain: MSANAETQTPQQPVKKSGKRKRLLLLLTLLFIIIAVAIGIYWFLVLRHFEETDDAYVAGNQIQIMSQVSGSVTKVWADNTDFVKEGDVLVTLDPTDARQAFEKAKTALASSVRQTHQLMINSKQLQANIEVQKIALAKAQSDYNRRVPLGNANLIGREELQHARDAVTSAQAQLDVAIQQYNANQAMILGTKLEDQPAVQQAATEVRNAWLALERTRIISPMTGYVSRRAVQPGAQISPTTPLMAVVPATNMWVDANFKETQIANMRIGQPVTITTDIYGDDVKYTGKVVGLDMGTGSAFSLLPAQNATGNWIKVVQRLPVRIELDQKQLEQYPLRIGLSTLVSVNTTNRDGQVLANKVRSTPVAVSTAREISLAPVNKLIDDIVKANAG
notes: also called free EmrA of pump-FA
B2 was tested, and the binding result [5] was “binds”, the binding result (TolC (TolC-FLAG) [6]) was “binds” and the “stoichiometry N” value [7] was 6.

B3: binds [1]; binds (TolC (TolC-FLAG) [6]).
